Measured values: patent EP4725968A1 (Salubris (Chengdu) Biotech Co., Ltd., dated 2024)
Numbering of substitutions follows the chain as printed.

T1: GPC3-B3 (human)
T1 construct: Overlapping peptide of GPC3-B
T1 peptide: DKNLDEEGFESG

T2: GPC3-B8
T2 construct: also called long fragments containing GPC3-B3
T2 peptide: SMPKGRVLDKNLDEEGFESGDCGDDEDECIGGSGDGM

T3: GPC3-B peptide
T3 peptide: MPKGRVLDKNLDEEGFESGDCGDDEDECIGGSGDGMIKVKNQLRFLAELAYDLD

T4: GPC3-A peptide
T4 construct: Peptide of the GPC3 antigen
T4 peptide: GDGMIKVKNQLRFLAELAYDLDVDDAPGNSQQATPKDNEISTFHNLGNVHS

B1: GC90 (antibody, V domains shown)
VH: QVQLLESGGGLVQPGGSLRVSCAASGFTFNSYAMSWVRQAPGKGLEWVASIKSSGDRVQYADSVKGRFTISRDNSKNTVYLEMNSLRAEDTAIYYCAKPQWSSPQRTFEVWGQGTPVTVSS
VL: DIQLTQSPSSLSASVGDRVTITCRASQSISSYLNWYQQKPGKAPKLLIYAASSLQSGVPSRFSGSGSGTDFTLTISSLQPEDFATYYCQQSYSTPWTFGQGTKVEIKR
notes: Human IgG1 / kappa; also called GC90 monoclonal antibody; humanized monoclonal antibody GC90
B2: GC008 (antibody, V domains shown)
VH: EVQLLESGGGLVQPGGSMRLSCAASEIDFSVYALGWSRQAPGKQRELVATITTSSTTTYADSVKGRFTISRDNAKNTVYLQMNSLKPEDTAVYYCHTLRRTGSGIVPGRIWGQGTPVTVSS
VL: DIQLTQSPSSLSASVGDRVTITCQASQDIDNSVTWYQQRPGKAPSLLISDASILESGVPSRFSGRGSGTHFTLSITSLQPEDIATYYCQQYENLPITFGQGTRLEIK
notes: Detected with anti-human IgG-Fc-HRP in the ELISA, so it carried a human Fc
B3: GC025 (antibody, V domains shown)
VH: EVQLLESGGGVVQPGRSLRLSCAASGFTFSSYAMHWVRQAPGKGLEWVAVISYDGSNKYYADSVKGRFTISRDNSKNTLYLQMNSLRAEDTAVYYCARRQRAAIDYWGQGTTVTVSS
VL: DIQLTQSPSSLSASVGDRVTITCRASQSISSYLSWYQQKPGKAPKLLIYGASSLQSGVPSRFSGSGSGTDFTLTISSLQPEDFATYSCQQSYSTQFTFGPGTKVDIK
notes: Detected with anti-human IgG-Fc-HRP
B4: GC139 (antibody, V domains shown)
VH: EVQLVESGGGLIQPGGSLRLSCAASGFTFSSYAMHWVRQAPGKGLEYVSAISSNGGSTYYADSVKGRFTISRDNSKNTLYLQMSSLRPDDTAVYYCVRGWIRPPPGSFDLWGQGTTVTVSS
VL: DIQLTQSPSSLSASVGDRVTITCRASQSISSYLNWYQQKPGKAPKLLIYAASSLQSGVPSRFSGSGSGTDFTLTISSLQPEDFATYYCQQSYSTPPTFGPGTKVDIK
notes: as for B3
B5: GC053 (antibody, V domains shown)
VH: B4 VH with V5L, I12V, D62N, S84G
VL: NIQMTQSPSSLSAFVGDRVTITCRASQSISRYLNWYQHKPGQAPKLLMYAASTLQDEVPSRFSGSGSGTYFTLTISSLEPEDFATYYCQQSYSTPPTFGGGTKVEIK
notes: as for B3
B6: GC037 (antibody, V domains shown)
VH: B4 VH with V5L, I12V, D62N, D73H, N74P, T78I, Y80F, Q82E, S84N, T116P
VL: AIRLTQFPSSLSASVGDRVTITCRARQSIDNYLNWYQEKPGKAPKLLIYAASSLQSGVPSRFSGSGSGTEFTLTISSLQPDDFAAYYCQQSYDSPPTFGQGTKVEIK
notes: as for B3
B7: GC147 (antibody, V domains shown)
VH: B4 VH with I12V, D62N, S84G, P88A, D89E, T91M, T116P
VL: AIRLTQSPSSLSASVGDRVSITCRASQSISTFLNWYQQKPGKAPNLLIYSASTLQSGVPSRFSGSGSGTDFTLTISSLQPEDFATYYCQQSYSSPPTFGQGTKLEIK
notes: as for B3
B8: GC011 (antibody, V domains shown)
VH: EVQLLESGGGVVQPGRSLRLSCAASGFTFSSYGMHWVRQAPGKGLEWVAVISYDGSNKYYADSVKGRFTISRDNSKNTLYLQMNSLRAEDTAVYYCAKNPSLDYWGQGTTVTVSS
VL: NIQMTQSPSSLSASVGDRVTITCRASQSITRYLNWYQQKPGKGPKLLIYAASRLQSGVPSRFSGSGSGTDFTLTISSLQPEDFATYYCQQSHSIPRTFGQGTKLEIK
notes: as for B3
B9: GC067 (antibody, V domains shown)
VH: EVQLLESGGGVVQPGRSLRLSCAASGFTFSSYAMHWVRQAPGKGLEWVAVISYDGSNKYYADSVKGRFTISRDNSKNTLYLQMNSLRAEDTAVYYCARRLRGSGMDVWGQGTPVTVSS
VL: not shown
notes: as for B3
B10: GC035 (antibody, V domains shown)
VH: B9 VH with Q13R, L100K, R101S, G104S, M105F, V107Y
VL: DIQLTQSPSSLSASVGDRVTITCRAGQTINNYLHWYQQKPGKAPKLLIFAASSLQSGVPSRFSGSGSGTDFTLTISSLQPEDFATYYCQQSYSPPLTFGGGTRVEIK
notes: as for B3
B11: GC010 (antibody, V domains shown)
VH: B9 VH with R99D, L100E, R101S, G102R, S103R, G104K, M105F, V107Y, P113T
VL: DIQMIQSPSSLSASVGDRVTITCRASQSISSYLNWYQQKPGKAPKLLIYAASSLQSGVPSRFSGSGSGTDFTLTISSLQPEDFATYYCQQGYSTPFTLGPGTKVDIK
notes: as for B3
B12: hYP7HM (antibody, human IgG1, kappa, L234A L235A, V domains shown)
VH: EVQLVESGGGLVQPGGSLRLSCAASGFTFNKNAMNWVRQAPGKGLEWVGRIRNKTNNYATYYADSVKGRFTISRDDSKNSLYLQMNSLKTEDTAVYYCVAGNSFAYWGQGTLVTVSA
VL: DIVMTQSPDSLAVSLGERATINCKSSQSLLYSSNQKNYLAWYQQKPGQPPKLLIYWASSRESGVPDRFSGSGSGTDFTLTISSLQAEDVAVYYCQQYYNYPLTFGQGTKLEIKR
notes: Control anti-GPC3 antibody; also called control antibody hYP7HM; control anti-GPC3 antibody hYP7HM

Target: T1, GPC3-B3
Test: ELISA, overlapping peptide coated at 6 µg/mL

| Binder | binding result |
| --- | --- |
| B1 | binds |

Target: T2, GPC3-B8
Test: ELISA, overlapping peptide coated at 6 µg/mL

| Binder | binding result |
| --- | --- |
| B1 | binds |

Each binder was assayed against T5, Mouse GPC3 (ACRO Biosystems, GP3-M52H3) (mouse, UniProt Q8CFZ4 25-558) (assay: ELISA, GPC3 protein coated at 6 µg/mL; × indicates no affinity recognition).
T5 construct: also called mouse Gpc3 protein; mouse GPC3 protein
T5 sequence (Q8CFZ4 25-558 limits assumed): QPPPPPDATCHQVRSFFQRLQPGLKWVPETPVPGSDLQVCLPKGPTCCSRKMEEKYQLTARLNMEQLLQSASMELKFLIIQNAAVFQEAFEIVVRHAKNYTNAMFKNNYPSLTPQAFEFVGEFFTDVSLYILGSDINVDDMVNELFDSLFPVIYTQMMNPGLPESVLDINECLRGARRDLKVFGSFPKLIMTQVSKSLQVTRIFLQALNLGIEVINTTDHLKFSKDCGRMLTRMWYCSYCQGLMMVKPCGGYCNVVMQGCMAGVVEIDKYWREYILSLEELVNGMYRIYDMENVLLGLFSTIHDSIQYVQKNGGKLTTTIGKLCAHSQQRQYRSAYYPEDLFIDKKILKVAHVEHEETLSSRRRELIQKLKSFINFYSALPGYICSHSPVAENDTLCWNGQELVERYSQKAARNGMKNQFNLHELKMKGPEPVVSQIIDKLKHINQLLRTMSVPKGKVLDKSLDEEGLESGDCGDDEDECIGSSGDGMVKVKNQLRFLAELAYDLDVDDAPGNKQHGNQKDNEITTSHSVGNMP

| Binder | binding result |
| --- | --- |
| B1 | no binding (tested: 30 nM) |

Target: T3, GPC3-B peptide
Test: ELISA, peptide coated at 6 µg/mL

| Binder | binding result |
| --- | --- |
| B2 | binds |
| B3 | binds |
| B4 | binds |
| B5 | binds |
| B6 | binds |
| B7 | binds |
| B1 | binds |
| B8 | binds |
| B9 | binds |
| B10 | binds |
| B11 | binds |

Target: T4, GPC3-A peptide
Test: ELISA, peptide coated at 6 µg/mL

| Binder | binding result |
| --- | --- |
| B12 | binds |
